Reference: publication PMC6347577 (Journal of the American Chemical Society, 2018)

Target: the molecule itself
Assay: native MS

B1: hepatitis B virus (HBV) capsid protein Cp149 (truncated form containing only the assembly domain), dimer (domain or fragment)
chain: MDIDPYKEFGATVELLSFLPSDFFPSVRDLLDTAAALYRDALESPEHCSPHHTALRQAILCWGDLMTLATWVGTNLEDPASRDLVVSYVNTNVGLKFRQLLWFHISCLTFGRETVLEYLVSFGVWIRTPPAYRPPNAPILSTLPETTVV
stoichiometry N: ~90 dimers
